Columns and labels:
[1] = molecular target: DnaJ, wild type (E. coli) (UniProt P08622); test: pull-down
ClpB, wild type = ClpB, wild type (E. coli, UniProt P63284 1-857); test: BLI
Chain of ClpB, wild type (P63284 whole entry): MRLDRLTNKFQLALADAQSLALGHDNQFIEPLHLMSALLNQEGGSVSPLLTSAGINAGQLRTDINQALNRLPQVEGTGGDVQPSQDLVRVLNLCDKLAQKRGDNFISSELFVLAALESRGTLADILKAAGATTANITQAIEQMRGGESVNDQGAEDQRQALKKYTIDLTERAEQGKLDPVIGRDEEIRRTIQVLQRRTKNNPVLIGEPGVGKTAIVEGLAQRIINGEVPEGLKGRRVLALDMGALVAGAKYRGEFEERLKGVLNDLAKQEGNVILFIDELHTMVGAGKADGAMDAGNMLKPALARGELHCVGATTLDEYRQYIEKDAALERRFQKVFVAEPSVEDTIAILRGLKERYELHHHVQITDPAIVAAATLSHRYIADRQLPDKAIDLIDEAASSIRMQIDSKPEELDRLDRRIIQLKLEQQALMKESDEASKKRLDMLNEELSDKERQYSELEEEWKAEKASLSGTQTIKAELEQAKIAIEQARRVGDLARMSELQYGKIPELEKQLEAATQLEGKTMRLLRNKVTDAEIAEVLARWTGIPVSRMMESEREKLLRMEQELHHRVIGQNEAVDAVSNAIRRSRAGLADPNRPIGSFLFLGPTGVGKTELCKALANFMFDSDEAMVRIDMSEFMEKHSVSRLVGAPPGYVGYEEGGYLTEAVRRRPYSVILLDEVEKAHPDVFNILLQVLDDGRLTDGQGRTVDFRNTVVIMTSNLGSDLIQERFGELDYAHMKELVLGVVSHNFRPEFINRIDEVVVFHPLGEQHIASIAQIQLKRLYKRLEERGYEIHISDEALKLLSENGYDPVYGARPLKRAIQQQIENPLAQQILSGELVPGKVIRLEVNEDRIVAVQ

Molecule: ΔN ClpB (ClpB mutant lacking the NTD) (domain or fragment)
- binding as percent of wild-type ClpB [1]: 40%

B1: DnaJ, wild type (natural protein)
chain: MAKQDYYEILGVSKTAEEREIRKAYKRLAMKYHPDRNQGDKEAEAKFKEIKEAYEVLTDSQKRAAYDQYGHAAFEQGGMGGGGFGGGADFSDIFGDVFGDIFGGGRGRQRAARGADLRYNMELTLEEAVRGVTKEIRIPTLEECDVCHGSGAKPGTQPQTCPTCHGSGQVQMRQGFFAVQQTCPHCQGRGTLIKDPCNKCHGHGRVERSKTLSVKIPAGVDTGDRIRLAGEGEAGEHGAPAGDLYVQVQVKQHPIFEREGNNLYCEVPINFAMAALGGEIEVPTLDGRVKLKVPGETQTGKLFRMRGKGVKSVRGGAQGDLLCRVVVETPVGLNERQKQLLQELQESFGGPTGEHNSPRSKSFFDGVKKFFDDLTR
modifications: biotin (DnaJ-biotin in the pull-down assays with ClpB; sites not stated)
- Kd (ClpB, wild type): 55.2 ± 9.9 nM

— publication PMC11804706 (Proceedings of the National Academy of Sciences of the …, 2025)
